Consider 16 sequences from the nanobody polyreactivity screen of Harvey et al. (2022).

The data set is described as follows: yeast display, Sf9 membrane polyspecificity reagent, FACS + sequencing; frameworks hold sequencing errors. In short, it runs like this: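 Nanobodies came from a synthetic yeast display library in Saccharomyces cerevisiae BJ5465, induced with galactose for 36–48 hours and stained for 1 hour at 4 °C with 10% biotinylated, detergent-solubilized Sf9 membrane reagent. Cells were enriched on streptavidin microbeads and then FACS-sorted, with low and high (top ~1%) gates set on anti-HA fluorescence for expression and streptavidin fluorescence for reagent binding. Each polyreactivity label reflects the gate a clone came from. Genes were amplified by colony PCR, sequenced by MiSeq 2 × 250 and filtered by CDR length.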
Take “QVQLVESGGGLVQAGGSLRLSCAASGFIFLPYAMGWARQAPGKERELVAAITRGGRTYYADSVKGRFTISRDNAKNTVYLQMNSLKPEDTAVYYCAATTYLVWGYNYWGQGTQVTVSS”: the “polyreactivity (PSR sort gate)” value is given as “low polyreactivity”.
Take “QVQLVESGGGLVQAGGSLRLSCAASGFIFLPYAMGWYRQAPGKERELVAAITRGGRTYYADSVKGRFTISRDNAKNTVYLKMNSLKPEDTAVYYCAATTYLVWGYNYWGQGTQVTVSS”: the “polyreactivity (PSR sort gate)” value is listed as “low polyreactivity”.
“QVQLVESGGGLVQAGGSLRLSCAASGFIFLSYGMGWYRPAPGKERELVASITSDGGSTYYADSVKGRFTISRDNAKNTVYLQMNSLKPEDTAVYYCAADSVSPWYYGWYYRYRGYGYWGQGTQVTVSS”: the “polyreactivity (PSR sort gate)” value was “low polyreactivity”.
The entry for “QVQLVESGGGLVQAGGSLRLSCAASGFIFLVNAMGWYRRGPGTERELVAAISKSTGGTYYADSVKGRFTISRDNAKNTVYLQMNSLKPEDTAVYYCAADEVYPVQRDMDYWGQGTQVTVSS” is “low polyreactivity”; for “QVQLVESGGGLVQAGGSLRLSCAASGFIFLVYAMGWYRQAPGKERELVAAISASGGRTYYADSVKGRFTISRDNAKNTVYLQMNSLKPEYTAVYYCARLLPTPGKPILDYWGQGTQVTVSS” it is “low polyreactivity”; for “QVQLVESGGGLVQAGGSLRLSCAASGFIFNAYAMGWYRQAPGKERELVAAVSWSGARTYYADSVKGRFTISRDNAKNTVYLQMNSLKPEDTAVYYCAAEYSGVHYQQAYDYSEGLDYWGQGTQVTVSS” it is “low polyreactivity”.
The entry for “QVQLVESGGGLVQAGGSLRLSCAASGFIFNFYAMGLYRQAPGKERELVAAISRSGGGTYYADSVKGRFTISRDNAKYTVYFQMNSLKPEDTAVYSCNVDKYRIVGFHSPYDYWGQGTQVTVSS” is “high polyreactivity”; for “QVQLVESGGGLVQAGGSLRLSCAASGFIFNHYAMGWYRQAPGKEREFVAAISWSGTRTYYADSVKGRFTISRDNAKNTVYLQMNSLKPEDTSVYYCAADVWGPYDYWGQGTQLTVSS” it is “low polyreactivity”; for “QVQLVESGGGLVQAGGSLRLSCAASGFIFNKNAMGWYRQAPGKERELVAAITFGGGTTYYADSVKGRFTISRDNAKNTVYLQMNSLKPEDTAVYYCNAVYYWYKGDYWGQGTQVTVSS” it is “high polyreactivity”.
The entry for “QVQLVESGGGLVQAGGSLRLSCAASGFIFNRYAMGWYRQAPGKERELVAGITSSGGSTYYADSVKGRFTISRDNAKNTVYLQMNSLKPEDTAVYYCNADSWLYRFFGYDYWGQGTQVTVSS” is “low polyreactivity”; for “QVQLVESGGGLVQAGGSLRLSCAASGFIFNTNAMGWYRQAPGKERELVAGISRSGVRTYYADSVKGRFTISRDNAKNTVFLQMNSLKPEDTAVYYCAATSLPRYYYWGQGTQVTVSS” it is “low polyreactivity”.
On to “QVQLVESGGGLVQAGGSLRLSCAASGFIFPENDMGWYRQAPGKERELVATISGDTSTNYADSVKGRFTISRDNAKHTVYLQMNSLKPEDTAVYYCNRKLKGRKSHKLDYDYWGQGTQVTVSS”, for which the “polyreactivity (PSR sort gate)” value is reported as “low polyreactivity”.
The entry for “QVQLVESGGGLVQAGGSLRLSCAASGFIFPKNAMGWYRQAPGKERELVAAISKRGGSTYYADSVKGRFTISRDNAKNTVYLQMNSLKPEDTAVYYCADGYRTRRGLGYYYWGQGTQVTVSS” is “high polyreactivity”; for “QVQLVESGGGLVQAGGSLRLSCAASGFIFPLYTMGWYRQAPGKEREVVAAISWIGGRTYYADSVKGRFTISRDFAKNTVYLQMISLKPEDTAVYFCGKDPSGGGYGYDYWGQGTQVTVTS” it is “low polyreactivity”.
The entry for “QVQLVESGGGLVQAGGSLRLSCAASGFIFPNYAMGWYRQAPGKVRELVAAISVRGGNTYYADSVKGRFTISRDNAKNTVYLQMNSLKPEDTAVYYCNAVLRSGYFPEYYYWGQVTQVTVSS” is “high polyreactivity”.
The entry for “QVQLVESGGGLVQAGGSLRLSCAASGFIFPQYAMGWYRQAPGKERELVAAISWSGTRTYYADSVKGRFTISRDNAKNTVYLQMNSLKPEDTAVYYCAARIDRQYRWTGFGYWGQGTQVTVSS” is “high polyreactivity”.
